# System: Escherichia coli TOP10
# Assay: shrunken log2 fold change of peptide-encoding DNA abundance (4.5 h post-induction vs induction); higher = less antimicrobial activity (less host growth inhibition)
# Conditions: time post-induction: 4.5 h; library: site-saturation at positions 5, 18, 19, 20
# 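Further: peptides expressed intracellularly from a pBAD plasmid library in pooled LB shake-flask culture, induced with 0.3% L-arabinose, DNA abundance read by NGS, three biological replicates, DESeq2 with apeglm shrinkage.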
row,Sequence,shrunken log2 fold change
1,RRIRSRPPRLPRPRPRPCSYPRP,-0.379
2,RRIRGRPPRLPRPRPRPTLWPRP,1.27
3,RRIRTRPPRLPRPRPRPWKRPRP,0.0299
4,RRIRARPPRLPRPRPRPHCRPRP,-0.0687
5,RRIRERPPRLPRPRPRPPTKPRP,0.774
6,RRIRSRPPRLPRPRPRPTDQPRP,0.16
7,RRIRCRPPRLPRPRPRPWSEPRP,-0.0285
8,RRIRLRPPRLPRPRPRPLRLPRP,0.417
9,RRIRERPPRLPRPRPRPQDDPRP,0.121
10,RRIRYRPPRLPRPRPRPICDPRP,-0.269
11,RRIRSRPPRLPRPRPRPVYTPRP,-0.105
12,RRIRFRPPRLPRPRPRPNVIPRP,-0.173
13,RRIRQRPPRLPRPRPRPFVWPRP,0.049
14,RRIRTRPPRLPRPRPRPTIWPRP,0.03
15,RRIRMRPPRLPRPRPRPLGSPRP,0.169
16,RRIRSRPPRLPRPRPRPSFDPRP,-0.264
17,RRIRKRPPRLPRPRPRPRTEPRP,1.04
18,RRIRVRPPRLPRPRPRPFTNPRP,-0.0456
19,RRIRCRPPRLPRPRPRPVLDPRP,0.0892
20,RRIRGRPPRLPRPRPRPLVFPRP,0.455
21,RRIRWRPPRLPRPRPRPIGCPRP,0.268
22,RRIRGRPPRLPRPRPRPYRGPRP,-0.186
23,RRIRNRPPRLPRPRPRPIACPRP,-0.00434
24,RRIRIRPPRLPRPRPRPAPAPRP,0.31
25,RRIRNRPPRLPRPRPRPFIWPRP,-0.741

row,Sequence,shrunken log2 fold change
1,RRIRSRPPRLPRPRPRPKCGPRP,0.397
2,RRIRVRPPRLPRPRPRPWRFPRP,-0.0846
3,RRIRDRPPRLPRPRPRPAMKPRP,-0.0728
4,RRIRCRPPRLPRPRPRPKFMPRP,-0.527
5,RRIRDRPPRLPRPRPRPPHRPRP,0.195
6,RRIRCRPPRLPRPRPRPSECPRP,-0.0818
7,RRIRDRPPRLPRPRPRPANMPRP,-0.229
8,RRIRMRPPRLPRPRPRPYNTPRP,-0.862
9,RRIRGRPPRLPRPRPRPTPAPRP,1.43
10,RRIRDRPPRLPRPRPRPWYGPRP,-0.87
11,RRIRHRPPRLPRPRPRPWLGPRP,-0.0973
12,RRIRFRPPRLPRPRPRPIGGPRP,0.14
13,RRIRARPPRLPRPRPRPELGPRP,1.43
14,RRIRRRPPRLPRPRPRPYTWPRP,-0.299
15,RRIRFRPPRLPRPRPRPEVRPRP,0.14
16,RRIRVRPPRLPRPRPRPGPTPRP,0.448
17,RRIRCRPPRLPRPRPRPRRKPRP,0.399
18,RRIRKRPPRLPRPRPRPWKPPRP,-0.243
19,RRIRARPPRLPRPRPRPGWFPRP,0.524
20,RRIRQRPPRLPRPRPRPPRPPRP,0.752
21,RRIRRRPPRLPRPRPRPKSCPRP,0.0766
22,RRIRPRPPRLPRPRPRPMALPRP,-0.0509
23,RRIRPRPPRLPRPRPRPQMTPRP,2.25
24,RRIRQRPPRLPRPRPRPMMPPRP,0.0665
25,RRIRVRPPRLPRPRPRPCHGPRP,0.000197

row,Sequence,shrunken log2 fold change
1,RRIRVRPPRLPRPRPRPVVNPRP,-0.0959
2,RRIRDRPPRLPRPRPRPLQHPRP,0.0148
3,RRIRGRPPRLPRPRPRPVEHPRP,0.117
4,RRIRSRPPRLPRPRPRPHDAPRP,-0.142
5,RRIRERPPRLPRPRPRPLMHPRP,-0.231
6,RRIRDRPPRLPRPRPRPVYYPRP,-0.707
7,RRIRWRPPRLPRPRPRPTIPPRP,-0.109
8,RRIRHRPPRLPRPRPRPESIPRP,-0.107
9,RRIRFRPPRLPRPRPRPSFMPRP,-0.393
10,RRIRTRPPRLPRPRPRPWRGPRP,0.123
11,RRIRGRPPRLPRPRPRPAWVPRP,0.456
12,RRIRFRPPRLPRPRPRPPDAPRP,0.451
13,RRIRKRPPRLPRPRPRPLYEPRP,0.0468
14,RRIRLRPPRLPRPRPRPDVPPRP,-0.284
15,RRIRWRPPRLPRPRPRPLIFPRP,-0.215
16,RRIRGRPPRLPRPRPRPPQTPRP,1.31
17,RRIRTRPPRLPRPRPRPHAPPRP,-0.046
18,RRIRTRPPRLPRPRPRPNCHPRP,-0.341
19,RRIRARPPRLPRPRPRPHKRPRP,0.157
20,RRIRGRPPRLPRPRPRPHMIPRP,0.0265
21,RRIRDRPPRLPRPRPRPWFHPRP,-0.00884
22,RRIRARPPRLPRPRPRPHPLPRP,-0.0796
23,RRIRMRPPRLPRPRPRPVCRPRP,1.48
24,RRIRQRPPRLPRPRPRPDAIPRP,0.0472
25,RRIRLRPPRLPRPRPRPGWEPRP,0.14

# From the supplement of paper PMC9112550, “Optimization of the antimicrobial peptide Bac7 by deep mutational scanning” (BMC Biology, 2022)
